{"source": "paper PMC5425604", "about": "“Fe65-PTB2 Dimerization Mimics Fe65-APP Interaction” (Frontiers in Molecular Neuroscience, 2017)", "proteins": {"B1": {"name": "Fe65-HA (natural protein, human, UniProt O00213 1-710, looked up)", "chain": "MSVPSSLSQSAINANSHGGPALSLPLPLHAAHNQLLNAKLQATAVGPKDLRSAMGEGGGPEPGPANAKWLKEGQNQLRRAATAHRDQNRNVTLTLAEEASQEPEMAPLGPKGLIHLYSELELSAHNAANRGLRGPGLIISTQEQGPDEGEEKAAGEAEEEEEDDDDEEEEEDLSSPPGLPEPLESVEAPPRPQALTDGPREHSKSASLLFGMRNSAASDEDSSWATLSQGSPSYGSPEDTDSFWNPNAFETDSDLPAGWMRVQDTSGTYYWHIPTGTTQWEPPGRASPSQGSSPQEESQLTWTGFAHGEGFEDGEFWKDEPSDEAPMELGLKEPEEGTLTFPAQSLSPEPLPQEEEKLPPRNTNPGIKCFAVRSLGWVEMTEEELAPGRSSVAVNNCIRQLSYHKNNLHDPMSGGWGEGKDLLLQLEDETLKLVEPQSQALLHAQPIISIRVWGVGRDSGRERDFAYVARDKLTQMLKCHVFRCEAPAKNIATSLHEICSKIMAERRNARCLVNGLSLDHSKLVDVPFQVEFPAPKNELVQKFQVYYLGNVPVAKPVGVDVINGALESVLSSSSREQWTPSHVSVAPATLTILHQQTEAVLGECRVRFLSFLAVGRDVHTFAFIMAAGPASFCCHMFWCEPNAASLSEAVQAACMLRYQKCLDARSQASTSCLPAPPAESVARRVGWTVRRGVQSLWGSLKPKRLGAHTP", "notes": "Fe65 (APBB1); called full-length Fe65 in the native gel analysis; human stated for Fe65 in general; Printed both as FE65-HA and HA-Fe65; also called HA-Fe65; HA-tagged Fe65; source: HEK293, transfected (pcDNA3.1), in lysate or subcellular fraction"}, "B2": {"name": "Human Fe65-PTB2 (residues 534-667), crystallization construct (domain or fragment, UniProt O00213 534-667, looked up)", "chain": "APKNELVQKFQVYYLGNVPVAKPVGVDVINGALESVLSSSSREQWTPSHVSVAPATLTILHQQTEAVLGECRVRFLSFLAVGRDVHTFAFIMAAGPASFCCHMFWCEPNAASLSEAVQAACMLRYQKCLDARSQ", "notes": "Fe65 (APBB1), human, PTB2 domain, residues 534-667 of UniProtKB APBB1_HUMAN O00213; source: recombinantly expressed and purified as described previously (Radzimanowski et al., 2008a); final SEC with 5% glycerol"}, "B3": {"name": "Wildtype Fe65-PTB2 (pETHis construct for NMR and SAXS) (domain or fragment, human, UniProt O00213 534-667, looked up)", "chain": "B2 chain", "notes": "Fe65 (APBB1), human, PTB2 domain; limits 534-667 are stated for recombinant Fe65-PTB2 in general, not separately for the pETHis construct; also called wt Fe65-PTB2"}}, "key": {"[1]": {"target": "the molecule itself", "experiment": "native gel or EMSA; Blue Native gel of cytosolic and membrane fractions of HEK293 cells expressing Fe65-HA, with or without APP-myc; blots for HA and myc"}, "[2]": {"target": "the molecule itself", "experiment": "SEC-MALS; MALS in line with SEC, refractive index; SEC buffer with 5% (v/v) glycerol"}, "[3]": {"target": "the molecule itself", "experiment": "SAXS; 0.25-6 mg/mL, 20 mM Na2HPO4 pH 6.5, 150 mM NaCl, 2 mM DTT (reducing), 300 K; monomer to dimer"}}, "note": "Values joined by “and” are separate entries in the source; they are usually repeats but may differ in a detail not shown here. Identical values can stand only once."}
{"protein": "B1", "values": [{"measurement": "stoichiometry N", "setting": "[1]", "value": 2}]}
{"protein": "B2", "values": [{"measurement": "stoichiometry N", "setting": "[2]", "value": "2 and 4"}]}
{"protein": "B3", "values": [{"measurement": "stoichiometry N", "setting": "[3]", "value": 2}]}
